Drawing on patent US20230220008A1, this text covers Average EC50 and Average fold induction for one substance.

The test deals with CD137 on Jurkat reporter cells (Promega) (UniProt Q07011). Nature of the test: cell-based or functional assay.
Chain of CD137 on Jurkat reporter cells (Promega) (Q07011 24-255 limits assumed): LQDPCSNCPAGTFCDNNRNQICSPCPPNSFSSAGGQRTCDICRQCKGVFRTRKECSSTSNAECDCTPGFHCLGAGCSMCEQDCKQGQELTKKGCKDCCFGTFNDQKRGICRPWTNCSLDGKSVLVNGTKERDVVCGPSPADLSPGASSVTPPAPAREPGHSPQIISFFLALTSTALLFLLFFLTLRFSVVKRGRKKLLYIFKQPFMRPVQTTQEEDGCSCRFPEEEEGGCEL

Substance “CD137 ligand (from UniProt P41273 71-254)” displayed an Average EC50 of 14.2 nM and an Average fold induction of 4 fold.
